The record followed here is the supplement of paper PMC12764529.

The nature of series [1]: folding stability dG unfold from trypsin proteolysis; higher = more stable. The method in brief: (§1)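 Unfolding free energy was derived, per protease or combined, by relating Bayesian-fitted K50 values from sequencing counts to a sequence-predicted unfolded-state K50 and a shared folded-state K50. The underlying digests exposed cysteine-free mini-proteins under 80 residues, in a PA-tagged cDNA display construct, to trypsin and chymotrypsin at 11 threefold-diluted concentrations and to a no-protease condition. A filter kept only designs with AlphaFold2 dimer inter-PAE above 15.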

The nature of series [2]: folding stability dG unfold from chymotrypsin proteolysis; higher = more stable. The method in brief: as §1
The nature of series [3]: folding stability dG unfold (combined trypsin and chymotrypsin); higher = more stable. Summed up:
as §1

± gives the half width of the 95% confidence interval.

With “SKKKIEIEVIDLKTGKTETIEADTLEEALEEIKKNAPPGSTVIVRIKLPDGSVLEITLEIKPEKVTEKEKSA [r9_482_TrROS_Hall]”, the “folding stability dG unfold” value in series [1] turned out to be 0.956 ± 0.074 kcal/mol; in series [2], 1.37 ± 0.087 kcal/mol; in series [3], 1.21 ± 0.22 kcal/mol.

As to “SKKKKEKKKKEKEKKEKKKVIVLSEEELLEKVRELAKKGKKVKIVVKTPDKELAERLAKEAEELGVEVEVSA [r9_468_TrROS_Hall]”, the “folding stability dG unfold” value came out at 1.45 ± 0.059 kcal/mol in series [1], 1.32 ± 0.027 kcal/mol in series [2] and 1.31 ± 0.13 kcal/mol in series [3].

Consider “SKKKKKKKKKKPKTVIIEIDVKEMSEEEIREILKKLPKNVKRVIIIAKSEEEKEKLKELLKEAGYEVEIVSA [r9_919_TrROS_Hall]”, for which the figures for the “folding stability dG unfold” value in series [1], in series [2] and in series [3] were 1.96 ± 0.18 kcal/mol, 1.94 ± 0.069 kcal/mol and 1.76 ± 0.25 kcal/mol, respectively.

For “SKKKKKKKKKKVIIKIKKDGKEIYIEMTVEEIKELLKKGVKKIEIYSPSEEEKEKIKKLLEEEGVEVEEVSA [r9_810_TrROS_Hall]”, the “folding stability dG unfold” value was 2 ± 0.1 kcal/mol in series [1], 1.71 ± 0.07 kcal/mol in series [2] and 1.78 ± 0.18 kcal/mol in series [3].

Regarding “SKKKKKKTIKIKITIKVEKEVKIRIIYNGKEKEITIKPGETKTIEITFPAGKVIIEIYKDGKPIKKIEIKSA [r9_411_TrROS_Hall]”, the “folding stability dG unfold” value in series [1] is 2.94 ± 0.092 kcal/mol; in series [2] it was 3 ± 0.051 kcal/mol; in series [3], 2.95 ± 0.1 kcal/mol.

Consider “SKKKKPPKKTVTVVVKVKPGEKITLTLKNKDGKEIAKVEFTKLPEDEPLYIATVTLKDGKLTIKVTKLKPSA [r9_238_TrROS_Hall]”, for which the “folding stability dG unfold” value in series [1] was determined as 2.1 ± 0.36 kcal/mol; in series [2], 2.53 ± 0.13 kcal/mol; in series [3] it was 2.66 ± 0.34 kcal/mol.

Consider “SKKKKTIVIELTKDELKELLKKLKVEEGDEVEIFVRNKDGSIYKLTIKNGKITKIEPFKGVPNKVVIVIKSA [r9_849_TrROS_Hall]”, for which the “folding stability dG unfold” value amounted to 1.84 ± 0.067 kcal/mol in series [1], 3.49 ± 0.068 kcal/mol in series [2] and 3.07 ± 0.3 kcal/mol in series [3].

With “SKKKVTININITPGDPEQMEENVRWAIKEAAENDPDKEVTITIHFPPGHPEWMRWIKELFTKKGIPITIHSA [r9_1202_TrROS]”, the results for the “folding stability dG unfold” value in series [1], in series [2] and in series [3] were 2.88 ± 0.042 kcal/mol, 3.3 ± 0.037 kcal/mol and 3.16 ± 0.059 kcal/mol, respectively.

For “SKKTVYRIVIELENGEKLEIEVPLGSEVKIEKKEDGTITITVNGKKIEIKLKPGEKAKIVKIEKLPEEEESA [r9_773_TrROS_Hall]”, the figures for the “folding stability dG unfold” value in series [1], in series [2] and in series [3] were 2.1 ± 0.13 kcal/mol, 2.48 ± 0.064 kcal/mol and 2.52 ± 0.23 kcal/mol, respectively.

In the case of “SKKVKEITIEGAPPGAKVTITVEEKGDKLIVRVEVERNGKTETFEVEMTLDELKALLDAGYTIRITEVIPSA [r9_1021_TrROS_Hall]”, the “folding stability dG unfold” value in series [1] is 2.04 ± 0.15 kcal/mol; in series [2], 2.12 ± 0.086 kcal/mol; in series [3], 1.99 ± 0.35 kcal/mol.

On to “SKKVTLPIRFPWNGWEIEITAEELAEKKGLDPEDLTIHVVMPGPGWMYTIKIDPDGIEIEPIGPVPPNDMSA [r9_819_TrROS]”, for which the “folding stability dG unfold” value was 1.45 ± 0.029 kcal/mol in series [1], 2.951 ± 0.026 kcal/mol in series [2] and 2.54 ± 0.074 kcal/mol in series [3].

As for “SKKVVFVTYPKTSVKEIVEKLKENPNTEFVFLMPSSVGPEFYEKLKKALKEANIPKEQKVLFLPVEENSLSA [r9_670_TrMRF]”, the results for the “folding stability dG unfold” value in series [1], in series [2] and in series [3] were 2.92 ± 0.13 kcal/mol, 3.106 ± 0.015 kcal/mol and 3.04 ± 0.077 kcal/mol, respectively.

“SKKYFLKIEIEIEVELRPLPDEPGYVVLRARIKIKITLVKVDPETGEIVEEKEFEIEIEIELVFPPGVKPSA [r9_1234_TrROS_Hall]”: the “folding stability dG unfold” value in series [1] is 4.35 ± 0.58 kcal/mol; in series [2] it was 6.38 ± 0.71 kcal/mol; in series [3], > 6 kcal/mol.

For the sequence “SKLKIEDIKWNPNYPGMYEFKIKLPDKPATIQIPHDPNNGRFMMEIWYPDKPVTVQFDSWDDALAFIKELSA [r9_366_TrROS]”, the “folding stability dG unfold” value in series [1] stood at 1.6 ± 0.046 kcal/mol; in series [2] it was 1.35 ± 0.16 kcal/mol; in series [3], 1.52 ± 0.11 kcal/mol.

On to “SKMKVIKTFENKETGEKIVIVKDEKTKKYYIFIYNKDGELVEKIEVEPGETITLPNGKTITIKEGDVIEFSA [r9_340_TrROS_Hall]”, for which the “folding stability dG unfold” value came out at 4.24 ± 0.13 kcal/mol in series [1], 4.24 ± 0.071 kcal/mol in series [2] and 4.35 ± 0.087 kcal/mol in series [3].

For “SKNKVEITIPMPYSQAREIARQLGLPPEKFKDPKDLVDWLKDLFPKDVKIRIQPMKPVTEEERRARQNGKSA [r9_74_TrROS]”, the “folding stability dG unfold” value is 0.817 ± 0.12 kcal/mol in series [1], 1.34 ± 0.076 kcal/mol in series [2] and 1.12 ± 0.085 kcal/mol in series [3].

As for “SKNYPIRISIFQRNPNGNPQTVTYPIPVDAAKELKDAGFEVKDVDPDSGMIMVKFPMPNYPVYIMISIEDSA [r9_5_TrROS]”, the “folding stability dG unfold” value in series [1] is 2.75 ± 0.093 kcal/mol; in series [2], 3.12 ± 0.056 kcal/mol; in series [3], 2.98 ± 0.13 kcal/mol.

In the case of “SKPDPVKIEIEQERNPNGQPQHTIKIQDKGKDRKFPIHNMSIDEFDPDDPYIKIRSPGNGQSHTIPPDDLSA [r9_1186_TrROS]”, the “folding stability dG unfold” value in series [1] is -0.0606 ± 0.073 kcal/mol; in series [2] it was 1.22 ± 0.022 kcal/mol; in series [3], 0.832 ± 0.098 kcal/mol.

As for “SKPILKIKINIPVLKDKNGKEIIPSPNDVLAALEKLGIPVDKAEITKIGKNTIPILILVDLVDGKAYVKDSA [r9_225_TrMRF]”, the “folding stability dG unfold” value is 1.51 ± 0.059 kcal/mol in series [1], 0.539 ± 0.054 kcal/mol in series [2] and 1.13 ± 0.1 kcal/mol in series [3].

On to “SKPPSDPGSIEFSFPDSSNVTVTIPVPLPPNTTVSISLSDGKSYTVPGGTTFTFTLPPGKPFTVTVNIRSSA [r9_79_JUSTAS]”, for which the “folding stability dG unfold” value was 3.75 ± 0.2 kcal/mol in series [1], 4.47 ± 0.061 kcal/mol in series [2] and 4.23 ± 0.2 kcal/mol in series [3].

On to “SKPTLTLKLTVVVKDENGEKKTVTLTIPVSEEELEKLLKEIAKELGLKDVKVVKIEKNKNGFIKITVEVKSA [r9_1101_TrROS_Hall]”, for which the “folding stability dG unfold” value in series [1] came out at 2.16 ± 0.12 kcal/mol; in series [2], 2.36 ± 0.033 kcal/mol; in series [3], 2.36 ± 0.21 kcal/mol.

Regarding “SKTFYAGLDVYFDPDSDELTALVGVRSEDGSYEPSLEEVAREVAAKLRELGYEVEVEPLPGYARIRVKPPSA [r9_510_TrMRF]”, the figures for the “folding stability dG unfold” value in series [1], in series [2] and in series [3] were 1.67 ± 0.039 kcal/mol, 1.72 ± 0.069 kcal/mol and 1.71 ± 0.057 kcal/mol, respectively.

Turning to “SKTIIIEVKEEKLEEIAEELAKKLEEETGYKIKKVEIILPDGTVVRIEVDAKTKKIKIEVYKLDKNGKLLSA [r9_173_TrROS_Hall]”, the “folding stability dG unfold” value in series [1] came to 1.15 ± 0.037 kcal/mol; in series [2], 2.24 ± 0.096 kcal/mol; in series [3] it was 1.97 ± 0.1 kcal/mol.

As for “SKTIMFQFDSIEEIKDFIKEAIDDGDPDQKIRIEWYPPGGRRQEHEIESPEDIIDFLENGPYWIRVEIEPSA [r9_589_TrROS]”, the figures for the “folding stability dG unfold” value in series [1], in series [2] and in series [3] were 1.68 ± 0.052 kcal/mol, 2.16 ± 0.047 kcal/mol and 2.05 ± 0.12 kcal/mol, respectively.

Turning to “SKVIYVPPGATVEEILAAIKANKGKTVTIVMSREELERLKKALEEAGYEVEEVKVFEEEPYVVVKIKVKPSA [r9_1138_TrROS_Hall]”, the “folding stability dG unfold” value turned out to be 4 ± 0.17 kcal/mol in series [1], 3.72 ± 0.12 kcal/mol in series [2] and 3.84 ± 0.18 kcal/mol in series [3].

Take “SLGPLVELAELFPDFEPLGVEEEPLEDGGRLLRVIGRIPEIGAYLLIEVRLPPGGGIESIRAEWVPEDELSA [r9_274_TrMRF]”: the “folding stability dG unfold” value in series [1] stood at 3.4 ± 0.12 kcal/mol; in series [2], 4.28 ± 0.071 kcal/mol; in series [3] it was 3.95 ± 0.11 kcal/mol.

Turning to “SLIEALRAALEAGADEVTLRIVMPEEEAEELEKALEDLGFEIVSRERVEVDGRRYLVMEIRLRAPPPEEPSA [r9_498_TrROS_Hall]”, the entries for the “folding stability dG unfold” value in series [1], in series [2] and in series [3] were 3.92 ± 0.095 kcal/mol, 4.93 ± 0.084 kcal/mol and 4.59 ± 0.1 kcal/mol, respectively.

Consider “SLKPGEWVMFMFTIPITIRITKDDLPPGWKIKEVTIRIYVMFLFRVDPDGNFKILSFNIMIEIEVKYEPDSA [r9_747_TrROS]”, for which the results for the “folding stability dG unfold” value in series [1], in series [2] and in series [3] were 4.52 ± 0.13 kcal/mol, 5.1 ± 0.081 kcal/mol and 4.98 ± 0.11 kcal/mol, respectively.

Take “SLRDIAKEIAEKAGMDPEDVEINVETEPDPKNGKPRLRITVSIEHPNRKYMIKIDFQDGEIEEIMPLEDISA [r9_1219_TrROS]”: the “folding stability dG unfold” value stood at 1.66 ± 0.099 kcal/mol in series [1], 1.97 ± 0.089 kcal/mol in series [2] and 1.74 ± 0.3 kcal/mol in series [3].

For the sequence “SLSPALEGPEALAALAAADPVPPLPVLTVKNSTGDPEKALEEVLKEHPELKPELIVEVEVGEGTLTITVLSA [r9_723_JUSTAS]”, the “folding stability dG unfold” value in series [1] turned out to be 0.442 ± 0.13 kcal/mol; in series [2], 0.573 ± 0.095 kcal/mol; in series [3] it was 0.48 ± 0.19 kcal/mol.

For the sequence “SLTAEEAAANPELAARLLALPPVPPFPVELLFVNPETRAVLPAKATVYQFPNTWLVLFPENGAALPVPGGSA [r9_548_TrMRF]”, the “folding stability dG unfold” value in series [1] is 0.71 ± 0.14 kcal/mol; in series [2] it was 1.26 ± 0.074 kcal/mol; in series [3] it was 1.1 ± 0.099 kcal/mol.

“SLTPEQVEKIAKTIADVFRKLGYELKVKTKVFEVNNVPVAVVEFELIDKDGKPRRFRFVIHPDGTIEIFPSA [r9_1027_TrMRF]”: the figures for the “folding stability dG unfold” value in series [1], in series [2] and in series [3] were 4.15 ± 0.07 kcal/mol, 6.18 ± 0.092 kcal/mol and > 6 kcal/mol, respectively.

Take “SMATVLSVSENPENPDTLSFEVELPDSPMSVTVPKDPKTGKYTMTVETPEATTTRDFTSLEDALAYIERASA [r9_366_JUSTAS]”: the results for the “folding stability dG unfold” value in series [1], in series [2] and in series [3] were 0.787 ± 0.021 kcal/mol, 0.758 ± 0.08 kcal/mol and 0.795 ± 0.034 kcal/mol, respectively.

As for “SMDFKENQSFYITEITDDEVTFIFNNKPYKFPKEFINSKDTIITIYNGKIKEIKKPKPLKLHPEEIKKLSSA [r9_842_TrMRF]”, the entries for the “folding stability dG unfold” value in series [1], in series [2] and in series [3] were 0.519 ± 0.17 kcal/mol, 1.43 ± 0.12 kcal/mol and 1.04 ± 0.36 kcal/mol, respectively.

In the case of “SMDIKVTKLPDGSYRITASVPPDTKPITIPVPKTGKPVVITTEPGKLTVTTDDEEVVKEVAEAIKKGELLSA [r9_515_JUSTAS]”, the “folding stability dG unfold” value came out at 0.951 ± 0.066 kcal/mol in series [1], 0.929 ± 0.087 kcal/mol in series [2] and 1.02 ± 0.15 kcal/mol in series [3].
